Source: the supplement of paper PMC9112550, “Optimization of the antimicrobial peptide Bac7 by deep mutational scanning” (BMC Biology, 2022)

tested on: Escherichia coli TOP10; assay: shrunken log2 fold change of peptide-encoding DNA abundance (4.5 h post-induction vs induction); higher = less antimicrobial activity (less host growth inhibition); settings: time post-induction: 4.5 h; library: site-saturation at positions 5, 18, 19, 20
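Further: peptides expressed intracellularly from a pBAD plasmid library in pooled LB shake-flask culture, induced with 0.3% L-arabinose, DNA abundance read by NGS, three biological replicates, DESeq2 with apeglm shrinkage.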

Row | Sequence | shrunken log2 fold change
1 | RRIRIRPPRLPRPRPRPMSVPRP | 0.0466
2 | RRIRFRPPRLPRPRPRPHTPPRP | 1.24
3 | RRIRQRPPRLPRPRPRPMYMPRP | -0.0317
4 | RRIRPRPPRLPRPRPRPGGKPRP | 0.12
5 | RRIRGRPPRLPRPRPRPGHHPRP | 0.16
6 | RRIRYRPPRLPRPRPRPNGKPRP | -0.186
7 | RRIRFRPPRLPRPRPRPEVWPRP | 0.273
8 | RRIRNRPPRLPRPRPRPQILPRP | -0.265
9 | RRIRWRPPRLPRPRPRPSFGPRP | -0.0482
10 | RRIRARPPRLPRPRPRPRNCPRP | 0.849
11 | RRIRKRPPRLPRPRPRPSVTPRP | -0.0473
12 | RRIRVRPPRLPRPRPRPCSGPRP | -0.0235
13 | RRIRIRPPRLPRPRPRPHKMPRP | -0.237
14 | RRIRIRPPRLPRPRPRPSCIPRP | -0.0523
15 | RRIRLRPPRLPRPRPRPRIAPRP | 0.317
16 | RRIRGRPPRLPRPRPRPVVKPRP | 0.246
17 | RRIRARPPRLPRPRPRPGHVPRP | 0.0499
18 | RRIRTRPPRLPRPRPRPNEIPRP | -0.128
19 | RRIRGRPPRLPRPRPRPPADPRP | 1.59
20 | RRIRWRPPRLPRPRPRPRRSPRP | 0.492
21 | RRIRTRPPRLPRPRPRPVSKPRP | -0.096
22 | RRIRRRPPRLPRPRPRPDTLPRP | 0.06
23 | RRIRERPPRLPRPRPRPHTAPRP | -0.14
24 | RRIRFRPPRLPRPRPRPISCPRP | -0.038
25 | RRIRTRPPRLPRPRPRPLMRPRP | 0.216

Row | Sequence | shrunken log2 fold change
26 | RRIRVRPPRLPRPRPRPVCFPRP | 0.147
27 | RRIRGRPPRLPRPRPRPILQPRP | 0.621
28 | RRIRFRPPRLPRPRPRPPLSPRP | 0.133
29 | RRIRWRPPRLPRPRPRPAWFPRP | 0.251
30 | RRIRERPPRLPRPRPRPYNMPRP | 0.0461
31 | RRIRERPPRLPRPRPRPPGLPRP | 0.433
32 | RRIRTRPPRLPRPRPRPAEVPRP | -0.108
33 | RRIRKRPPRLPRPRPRPQTCPRP | -0.132
34 | RRIRKRPPRLPRPRPRPCHNPRP | -0.111
35 | RRIRGRPPRLPRPRPRPKRWPRP | 0.796
36 | RRIRCRPPRLPRPRPRPEGTPRP | 0.137
37 | RRIRRRPPRLPRPRPRPVMQPRP | 0.316
38 | RRIRMRPPRLPRPRPRPFLQPRP | -0.0339
39 | RRIRCRPPRLPRPRPRPETHPRP | 0.0444
40 | RRIRCRPPRLPRPRPRPVFPPRP | -0.15
41 | RRIRERPPRLPRPRPRPCMTPRP | -0.00173
42 | RRIRFRPPRLPRPRPRPRFFPRP | 0.0547
43 | RRIRHRPPRLPRPRPRPQIHPRP | -0.46
44 | RRIRMRPPRLPRPRPRPASEPRP | 0.145
45 | RRIRFRPPRLPRPRPRPHPQPRP | 0.246
46 | RRIRCRPPRLPRPRPRPNVKPRP | -0.482
47 | RRIRHRPPRLPRPRPRPDIIPRP | -0.0233
48 | RRIRDRPPRLPRPRPRPHWPPRP | 0.197
49 | RRIRARPPRLPRPRPRPDQRPRP | 0.267
50 | RRIRMRPPRLPRPRPRPPGCPRP | 0.451

Row | Sequence | shrunken log2 fold change
51 | RRIRARPPRLPRPRPRPFNFPRP | -0.0477
52 | RRIRVRPPRLPRPRPRPWIYPRP | 0.0875
53 | RRIRYRPPRLPRPRPRPTPQPRP | 0.161
54 | RRIRNRPPRLPRPRPRPFWAPRP | 0.0267
55 | RRIRMRPPRLPRPRPRPRDRPRP | 1.11
56 | RRIRWRPPRLPRPRPRPDKHPRP | -0.243
57 | RRIRYRPPRLPRPRPRPKGKPRP | -0.215
58 | RRIRARPPRLPRPRPRPVQRPRP | 0.615
59 | RRIRNRPPRLPRPRPRPKSVPRP | 0.0186
60 | RRIRARPPRLPRPRPRPRVHPRP | 0.555
61 | RRIRCRPPRLPRPRPRPRAEPRP | 0.539
62 | RRIRVRPPRLPRPRPRPDYQPRP | 0.0174
63 | RRIRERPPRLPRPRPRPGHKPRP | -0.324
64 | RRIRKRPPRLPRPRPRPMQPPRP | 0.288
65 | RRIRKRPPRLPRPRPRPMGIPRP | -0.00149
66 | RRIRERPPRLPRPRPRPGGEPRP | 0.127
67 | RRIRNRPPRLPRPRPRPWSMPRP | -0.0638
68 | RRIRVRPPRLPRPRPRPDIGPRP | -0.173
69 | RRIRWRPPRLPRPRPRPYTKPRP | 0.000534
70 | RRIRCRPPRLPRPRPRPTFDPRP | -0.164
71 | RRIRKRPPRLPRPRPRPAGPPRP | 0.368
72 | RRIRCRPPRLPRPRPRPYPCPRP | 0.00458
73 | RRIRNRPPRLPRPRPRPARMPRP | 0.991
74 | RRIRTRPPRLPRPRPRPGDWPRP | 0.73
75 | RRIRVRPPRLPRPRPRPKCRPRP | 0.224

Row | Sequence | shrunken log2 fold change
76 | RRIRHRPPRLPRPRPRPMNLPRP | -0.0351
77 | RRIRCRPPRLPRPRPRPLCSPRP | -0.399
78 | RRIRNRPPRLPRPRPRPSMSPRP | -0.222
79 | RRIRIRPPRLPRPRPRPRGCPRP | 0.255
80 | RRIRYRPPRLPRPRPRPYTGPRP | -0.0103
81 | RRIRPRPPRLPRPRPRPEHEPRP | 0.0185
82 | RRIRQRPPRLPRPRPRPGSMPRP | -0.174
83 | RRIRNRPPRLPRPRPRPTWAPRP | 0.374
84 | RRIRMRPPRLPRPRPRPSTCPRP | -0.0128
85 | RRIRTRPPRLPRPRPRPMINPRP | -0.239
86 | RRIRMRPPRLPRPRPRPGRDPRP | 1.4
87 | RRIRRRPPRLPRPRPRPASKPRP | 0.276
88 | RRIRPRPPRLPRPRPRPDLNPRP | 0.168
89 | RRIRRRPPRLPRPRPRPWNVPRP | 0.00231
90 | RRIRERPPRLPRPRPRPEIWPRP | 0.417
91 | RRIRVRPPRLPRPRPRPPSGPRP | 0.208
92 | RRIRFRPPRLPRPRPRPKPNPRP | 0.545
93 | RRIRRRPPRLPRPRPRPMFVPRP | -0.0498
94 | RRIRKRPPRLPRPRPRPMMSPRP | -0.00973
95 | RRIRRRPPRLPRPRPRPPPPPRP | 1.03
96 | RRIRYRPPRLPRPRPRPTKIPRP | -0.373
97 | RRIRQRPPRLPRPRPRPCMNPRP | -0.0959
98 | RRIRTRPPRLPRPRPRPYRQPRP | -0.00615
99 | RRIRPRPPRLPRPRPRPNKVPRP | -0.1
100 | RRIRRRPPRLPRPRPRPWAIPRP | -0.0356

Row | Sequence | shrunken log2 fold change
101 | RRIRGRPPRLPRPRPRPYCYPRP | 0.0406
102 | RRIRKRPPRLPRPRPRPARIPRP | 0.0491
103 | RRIRERPPRLPRPRPRPPPAPRP | 0.365
104 | RRIRCRPPRLPRPRPRPGAHPRP | 0.0157
105 | RRIRMRPPRLPRPRPRPMKCPRP | 0.0208
106 | RRIRPRPPRLPRPRPRPVWHPRP | 0.186
107 | RRIRARPPRLPRPRPRPECFPRP | 0.938
108 | RRIRPRPPRLPRPRPRPRDKPRP | 0.144
109 | RRIRRRPPRLPRPRPRPALCPRP | 0.334
110 | RRIRMRPPRLPRPRPRPVAAPRP | 2.1
111 | RRIRHRPPRLPRPRPRPSVCPRP | -0.294
112 | RRIRFRPPRLPRPRPRPHRNPRP | -0.257
113 | RRIRGRPPRLPRPRPRPEGLPRP | 1.06
114 | RRIRDRPPRLPRPRPRPEYHPRP | -0.000207
115 | RRIRIRPPRLPRPRPRPQSDPRP | -0.212
116 | RRIRHRPPRLPRPRPRPTAQPRP | -0.054
117 | RRIRQRPPRLPRPRPRPTYMPRP | -0.106
118 | RRIRYRPPRLPRPRPRPIKWPRP | 0.0101
119 | RRIRGRPPRLPRPRPRPHDNPRP | 0.174
120 | RRIRNRPPRLPRPRPRPQSVPRP | -0.0373
121 | RRIRMRPPRLPRPRPRPTKMPRP | 0.745
122 | RRIRGRPPRLPRPRPRPNGNPRP | 0.0103
123 | RRIRFRPPRLPRPRPRPYAPPRP | -0.496
124 | RRIRMRPPRLPRPRPRPCLGPRP | 0.0639
125 | RRIRARPPRLPRPRPRPMAPPRP | 0.0991

Row | Sequence | shrunken log2 fold change
126 | RRIRYRPPRLPRPRPRPLPMPRP | -0.624
127 | RRIRCRPPRLPRPRPRPIQIPRP | -0.0558
128 | RRIRARPPRLPRPRPRPTLLPRP | 0.286
129 | RRIRKRPPRLPRPRPRPKLTPRP | 0.104
130 | RRIRYRPPRLPRPRPRPGYYPRP | -0.545
131 | RRIRYRPPRLPRPRPRPVQSPRP | -0.017
132 | RRIRARPPRLPRPRPRPIQKPRP | 0.00369
133 | RRIRFRPPRLPRPRPRPFYRPRP | -0.202
134 | RRIRNRPPRLPRPRPRPYSPPRP | -0.276
135 | RRIRKRPPRLPRPRPRPPTRPRP | 1.49
136 | RRIRARPPRLPRPRPRPFGGPRP | 0.0726
137 | RRIRPRPPRLPRPRPRPSKYPRP | -0.528
138 | RRIRWRPPRLPRPRPRPSTPPRP | 0.0706
139 | RRIRCRPPRLPRPRPRPCPGPRP | -0.191
140 | RRIRKRPPRLPRPRPRPISFPRP | -0.1
141 | RRIRRRPPRLPRPRPRPVRVPRP | 0.791
142 | RRIRQRPPRLPRPRPRPCFSPRP | -0.0347
143 | RRIRTRPPRLPRPRPRPKDYPRP | -0.115
144 | RRIRARPPRLPRPRPRPQLIPRP | 0.184
145 | RRIRMRPPRLPRPRPRPYYQPRP | -0.856
146 | RRIRRRPPRLPRPRPRPKCQPRP | 0.506
147 | RRIRRRPPRLPRPRPRPEDDPRP | 1.11
148 | RRIRVRPPRLPRPRPRPTRKPRP | 0.575
149 | RRIRRRPPRLPRPRPRPCGFPRP | 0.265
150 | RRIRWRPPRLPRPRPRPYDGPRP | -0.337
